Assay results from PMC3261901.

Key:
[1] = target: Trypanosoma cruzi oligopeptidase B (OPBTc), recombinant, N-terminal His-tagged (Trypanosoma cruzi (CL Brener)); experiment: AUC; sedimentation velocity, 10 °C, OPBTc at 28.1, 8.4 and 1.8 µM in 25 mM Tris pH 8.0, 100 mM NaCl, 130,000 x g; c(s) analysis, s combined with the Stokes radius from SEC
[2] = target: Trypanosoma cruzi oligopeptidase B (OPBTc), recombinant, N-terminal His-tagged (Trypanosoma cruzi (CL Brener)); experiment: SEC; enzyme incubated at 28, 37, 42, 50 or 60°C for 20 min before the run; Superdex 200 10/300, 25 mM Tris-HCl pH 8.0; at 50 and 60°C a void-volume aggregate peak and a second peak of 160 kDa
[3] = target: Trypanosoma cruzi oligopeptidase B (OPBTc), recombinant, N-terminal His-tagged (Trypanosoma cruzi (CL Brener)); experiment: SEC; Superdex 200 10/300, 25 mM Tris-HCl pH 8.0, 200 mM NaCl, room temperature, calibrated with proteins of known Stokes radii; also run with 0.5 or 1.0 M NaCl (same elution, dimer not disrupted)

Measured: stoichiometry N

Trypanosoma cruzi oligopeptidase B (OPBTc), recombinant, N-terminal His-tagged (enzyme)
2: all assays above
